Here are results for nine proteins from paper PMC9224512, “New Insights into the Determinants of Specificity in Human Type I Arginase: Generation of a Mutant That Is Only Active with Agmatine as Substrate” (International Journal of Molecular Sciences, 2022).

Positions count from the first letter of the chain named. In names and notes the source's numbering stands.

Substrate in series [1]: N=C(N)NCCCCN
As to the kind of experiment: Kinetic and inhibition studies, Chimera A2. It is filed as biochemical, human. Particulars: other: substrate = labelled compound, pH 9.5, 2 mM Mn2+.

Substrate in series [2]: N=C(N)NCCCCN
Kind of series: Kinetic studies, E. coli agmatinase. To be noted: other: substrate = labelled compound; n/a = no activity with the substrate; pH 9.5. It counts as biochemical. How it is done: All assays were initiated by adding the enzyme to a previously equilibrated buffer with the substrate in solution (the concentrations of used substrates were between 0.2–3 fold the Km). Urea was determined by a colorimetric method with α-isonitrosopropiophenone. The protein concentrations were determined by the Bradford’s method, with bovine serum albumin as standard. Initial velocity and enzymatic inhibition experiments were performed in duplicate and repeated three times. The inhibitory patterns were initially determined by double reciprocal plots and re-plots of intercepts and slopes versus inhibitor concentrations. […] Velocities are expressed as μmol of urea/10 min.

Substrate in series [3]: N=C(N)NCCCCN
As to the kind of experiment: Kinetic and inhibition studies, S137C-N139D mutant. It counts as biochemical, human. To be noted: other: substrate = labelled compound, pH 9.5, 2 mM Mn2+.

Substrate in series [4]: N=C(N)NCCCCN
Kind of series: Kinetic and inhibition studies, N139D mutant. It counts as biochemical, human. Particulars: other: substrate = labelled compound, pH 9.5, 2 mM Mn2+.

Substrate in series [5]: N=C(N)NCCCCN
Kind of series: Kinetic and inhibition studies, N130D-N139D mutant. It counts as biochemical, human. To be noted: other: substrate = labelled compound, pH 9.5, 2 mM Mn2+.

Substrate in series [6]: N=C(N)NCCCCN
As to the kind of experiment: Kinetic and inhibition studies, triple mutant. To be noted: other: substrate = labelled compound, pH 9.5, 2 mM Mn2+. It counts as biochemical, human.

Substrate in series [7]: N=C(N)NCCCCN
Kind of series: Kinetic and inhibition studies, N130D-S137C mutant. It counts as biochemical, human. Particulars: other: substrate = labelled compound, pH 9.5, 2 mM Mn2+.

Substrate in series [8]: N=C(N)NCCCCN
Kind of series: Kinetic and inhibition studies, S137C mutant. It counts as biochemical, human. Particulars: other: substrate = labelled compound, pH 9.5, 2 mM Mn2+.

Substrate in series [9]: N=C(N)NCCCCN
Kind of series: Kinetic and inhibition studies, N130D mutant. It is filed as biochemical, human. Particulars: other: substrate = labelled compound, pH 9.5, 2 mM Mn2+.

B1: Chimera A2 (I129T/N130Y/T131A+∆ P132-T134) of human arginase type I (Homo sapiens; DEL129-131/I129T/L133Y/N130Y/P132T/T134A) (protein)
chain: MSAKSRTIGIIGAPFSKGQPRGGVEEGPTVLRKAGLLEKLKEQECDVKDYGDLPFADIPNDSPFQIVKNPRSVGKASEQLAGKVAEVKKNGRISLVLGGDHSLAIGSISGHARVHPDLGVIWVDAHTDTYATTSGNLHGQPVSFLLKELKGKIPDVPGFSWVTPCISAKDIVYIGLRDVDPGEHYILKTLGIKYFSMTEVDRLGIGKVMEETLSYLLGRKKRPIHLSFDVDGLDPSFTPATGTPVVGGLTYREGLYITEEIYKTGLLSGLDIMEVNPSLGKTPEEVTRTVNTAVAITLACFGLAREGNHKPIDYLNPPK
notes: made in house; host or cells: E. coli JM109
With B1, in series [1], the Km was 6000 ± 1000 µM, the turnover number (kcat) stood at 1.1 ± 0.2 s⁻¹ and the kcat/Km is 180 M⁻¹ s⁻¹.

B2: E. coli agmatinase (Escherichia coli K-12) (protein)
chain: MSTLGHQYDNSLVSNAFGFLRLPMNFQPYDSDADWVITGVPFDMATSGRAGGRHGPAAIRQVSTNLAWEHNRFPWNFDMRERLNVVDCGDLVYAFGDAREMSEKLQAHAEKLLAAGKRMLSFGGDHFVTLPLLRAHAKHFGKMALVHFDAHTDTYANGCEFDHGTMFYTAPKEGLIDPNHSVQIGIRTEFDKDNGFTVLDACQVNDRSVDDVIAQVKQIVGDMPVYLTFDIDCLDPAFAPGTGTPVIGGLTSDRAIKLVRGLKDLNIVGMDVVEVAPAYDQSEITALAAATLALEMLYIQAAKKGE
As for B2, in series [2], the Km turned out to be 1100 µM, the kcat worked out at 120 s⁻¹ and the catalytic efficiency (kcat/Km) was determined as 110000 M⁻¹ s⁻¹.

B3: human arginase type I S137C-N139D (Homo sapiens; N139D/S137C) (protein)
chain: MSAKSRTIGIIGAPFSKGQPRGGVEEGPTVLRKAGLLEKLKEQECDVKDYGDLPFADIPNDSPFQIVKNPRSVGKASEQLAGKVAEVKKNGRISLVLGGDHSLAIGSISGHARVHPDLGVIWVDAHTDINTPLTTTCGDLHGQPVSFLLKELKGKIPDVPGFSWVTPCISAKDIVYIGLRDVDPGEHYILKTLGIKYFSMTEVDRLGIGKVMEETLSYLLGRKKRPIHLSFDVDGLDPSFTPATGTPVVGGLTYREGLYITEEIYKTGLLSGLDIMEVNPSLGKTPEEVTRTVNTAVAITLACFGLAREGNHKPIDYLNPPK
notes: as for B1
As to B3, in series [3], the Km was 900 µM, the kcat is 1.1 s⁻¹ and the kcat/Km was 1200 M⁻¹ s⁻¹.

B4: human arginase type I N139D (Homo sapiens; N139D) (protein)
chain: B3 chain with C137S
notes: as for B1
Consider B4, for which, in series [4], the Km is 5300 µM, the kcat was determined as 1.3 s⁻¹ and the kcat/Km stood at 250 M⁻¹ s⁻¹.

B5: human arginase type I N130D-N139D (Homo sapiens; N130D/N139D) (protein)
chain: B3 chain with N130D, C137S
notes: as for B1
Turning to B5, in [5], the Km came out at 1100 µM, the kcat came out at 1.6 s⁻¹ and the kcat/Km amounted to 1400 M⁻¹ s⁻¹.

B6: human arginase type I N130D-S137C-N139D (Homo sapiens; N130D/N139D/S137C) (protein)
chain: B3 chain with N130D
notes: as for B1
Regarding B6, in series [6], the Km worked out at 1600 µM, the kcat came out at 0.9 s⁻¹ and the kcat/Km was found to be 560 M⁻¹ s⁻¹.

B7: human arginase type I N130D-S137C (Homo sapiens; N130D/S137C) (protein)
chain: B3 chain with N130D, D139N
notes: as for B1
B7: in [7], the Km was 1700 µM, the kcat was 2.3 s⁻¹ and the kcat/Km was 1300 M⁻¹ s⁻¹.

B8: human arginase type I S137C (Homo sapiens; S137C) (protein)
chain: B3 chain with D139N
notes: as for B1
With B8, in [8], the Km turned out to be 7500 µM, the kcat amounted to 1.8 s⁻¹ and the kcat/Km amounted to 240 M⁻¹ s⁻¹.

B9: human arginase type I N130D (Homo sapiens; N130D) (protein)
chain: B3 chain with N130D, C137S, D139N
notes: as for B1
As for B9, in series [9], the Km is 1400 µM, the kcat was found to be 3 s⁻¹ and the kcat/Km was 2100 M⁻¹ s⁻¹.

Usually Km stands for the substrate concentration at which the rate is half of its maximum. In general, kcat refers to the maximal rate divided by the concentration of active sites. The kcat/Km is the turnover number divided by the Michaelis constant.
